# According to PMC4215226, “The Chlamydia Effector TarP Mimics the Mammalian Leucine-Aspartic Acid Motif of Paxillin to Subvert the Focal Adhesion Kinase during Invasion*” (The Journal of Biological Chemistry, 2014):
# Molecular target: focal adhesion kinase (FAK) (human (endogenous in HeLa), UniProt Q05397 1-1052)
# Experiment: cell-based or functional assay
# focal adhesion kinase (FAK), sequence (Q05397 whole entry): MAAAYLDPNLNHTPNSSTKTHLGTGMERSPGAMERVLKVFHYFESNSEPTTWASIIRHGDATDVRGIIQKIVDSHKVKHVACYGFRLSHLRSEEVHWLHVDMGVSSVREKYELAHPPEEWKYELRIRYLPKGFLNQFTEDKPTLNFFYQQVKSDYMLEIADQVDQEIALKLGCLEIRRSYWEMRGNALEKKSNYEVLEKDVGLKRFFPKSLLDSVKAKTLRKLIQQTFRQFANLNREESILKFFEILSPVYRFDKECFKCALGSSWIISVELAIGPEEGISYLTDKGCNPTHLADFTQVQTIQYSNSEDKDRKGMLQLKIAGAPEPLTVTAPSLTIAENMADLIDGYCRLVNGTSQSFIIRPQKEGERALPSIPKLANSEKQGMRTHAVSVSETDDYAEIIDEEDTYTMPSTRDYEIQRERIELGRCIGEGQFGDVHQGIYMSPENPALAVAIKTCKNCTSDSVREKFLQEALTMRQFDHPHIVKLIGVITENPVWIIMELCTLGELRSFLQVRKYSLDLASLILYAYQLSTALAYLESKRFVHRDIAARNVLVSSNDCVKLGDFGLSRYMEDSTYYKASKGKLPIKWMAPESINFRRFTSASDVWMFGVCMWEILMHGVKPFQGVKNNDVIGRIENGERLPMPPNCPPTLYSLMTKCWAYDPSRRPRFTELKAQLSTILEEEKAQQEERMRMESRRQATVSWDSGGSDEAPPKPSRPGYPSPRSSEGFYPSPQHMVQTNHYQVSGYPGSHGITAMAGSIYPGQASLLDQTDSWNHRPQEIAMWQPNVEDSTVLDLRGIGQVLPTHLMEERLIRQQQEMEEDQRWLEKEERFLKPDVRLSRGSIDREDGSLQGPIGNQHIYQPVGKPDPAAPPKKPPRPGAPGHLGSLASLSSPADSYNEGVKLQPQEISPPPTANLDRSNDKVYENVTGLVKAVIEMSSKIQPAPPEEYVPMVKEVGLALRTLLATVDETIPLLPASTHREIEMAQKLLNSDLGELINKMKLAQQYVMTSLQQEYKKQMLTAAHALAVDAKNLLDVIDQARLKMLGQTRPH
binder,measurement,value
"Cya18-Pax-LD2 (domain or fragment, UniProt P49024 125-186, looked up) KSAEPSPTMTSTSLGSNLSELDRLLLELNAVQHNPPSGFSADEVSRSPSLPNVTGPHYVIPE","colocalisation of endogenous pY397-FAK with adhered Δtir EPEC in Cos7 cells expressing TirM-Pax-LD2, increase relative to the TirM-only negative control",2.4 fold
